Reference: publication PMC9842639, “Insights into pyrrolysine function from structures of a trimethylamine methyltransferase and its corrinoid protein complex” (Communications Biology, 2023)
Numbering of substitutions follows the chain as printed. Names may count otherwise.

B1: Methanosarcina barkeri trimethylamine corrinoid protein MttC (natural protein, UniProt O93659 1-217, looked up)
chain: MANKEEIIAKAKEAITDFDDELAEEVANEALAAGIDPVELIEKGFTAGMEEVGEKFGQGELFLPHVLAAAEAMNSGIKVITPEMEKRKSQTKSLGTVAIGTIEGDIHSIGKDIVASMLNIAGFKVVDLGRDVPINTFVEKVKELKPQVVASSALMTTTMVNQIQIEEQLKEAGVRDQVKTMVGGAPVTQDWADKIGADIYGESANDAVAKVKAALNV
notes: Trimethylamine corrinoid protein MttC of M. barkeri; mttC gene cloned by a strategy similar to that for mttB1; helical cap domain residues 2-84, connecting loop 85-95, core domain 96-216; No step that removes the tag is described; also called MttC-His6; cognate corrinoid protein; source: Methanosarcina acetivorans C2A transformed with plasmid pTC311, purified (HiTrap HP column, Mono-Q HR 10/10)
B2: MttB (Methanosarcina barkeri; C-TERMINAL/CHANGE/GGHHHHHH/IS/NO/TAG) (protein)
chain: MAKNNAVAGFNALNGVELNLFTTDELKAIHYATMEVLMDPGIQVSDPEARQIFKENGCEVNEKTNVVKIPEYLVRKALQLAPSRFVLWGRDKKFNTVQECGGKVHWTCFGTGVKVCKYQDGKYVTVDSVEKDIADIAKLCDWAENIDYFSLPVSARDIAGQGAQDVHETLTPLANTAKHFHHIDPVGENVEYYRDIVKAYYGGDEEEARKKPIFSMLLCPTSPLELSVNACQVIIKGARFGIPVNVLSMAMSGGSSPVYLAGTLVTHNAEVLSGIVLAQLTVPGAKVWYGSSTTTFDLKKGTAPVGSPELGLISAAVAKLAQFYGLPSYVAGSOSDAKVPDDQAGHEKTMTTLLPALAGANTIYGAGMLELGMTFSMEQLVIDNDIFSMVKKAMQGIPVSEETLAVESIQKVGIGNNFLALKQTRQLVDYPSNPMLLDRHMFGDWAAAGSKDLATVAHEKVEDVLKNHQVTPIDADIFKDMQAIVDKADKAFRGM
notes: full length with C-terminal GGHHHHHH tag, contains pyrrolysine at 334 (amber codon); expressed in Methanosarcina acetivorans C2A; D3 homohexamer (trimer of dimers)
B3: Methanosarcina barkeri trimethylamine methyltransferase MttB (enzyme, Methanosarcina barkeri MS, UniProt O93658 1-495, looked up)
chain: B2 chain
modifications: pyrrolysine at 334 (Pyl334)
notes: Trimethylamine methyltransferase MttB, product of the mttB1 gene amplified from M. barkeri MS genomic DNA; the in-frame amber codon is read as pyrrolysine (Pyl334); residues 2-495 are described in the structure; D3-symmetric homo-hexamer (trimer of dimers) in the crystals; No step that removes the tag is described; The PDB ids are printed in two ways (7XCL/7XCM in the methods, 7LCL/7LCM in the …)
B4: MttB (Methanosarcina barkeri; Y364F) (protein)
chain: B2 chain with Y364F
notes: as for B2

Experiments:
MttB = molecular target: T1, MttB (Methanosarcina barkeri, UniProt O93658); assay: X-ray crystal structure, […] Å; assay type: binding; settings: covalent; adduct on imine carbon of Pyl334; crystal soaked with saturated sodium dithionite, pH 4.5
T1 construct: full length with C-terminal GGHHHHHH tag, contains pyrrolysine at 334 (amber codon); expressed in Methanosarcina acetivorans C2A; D3 homohexamer (trimer of dimers)

[1] = molecular target: B3; assay: crystal structure; MttB-MttC complex; hanging drops at 10 °C of MttB (3 mg/mL) and MttC (10 mg/mL) mixed with 18% PEG8000, 0.1 M citric acid pH 5, 1 M LiCl; crystals soaked with 12.5 mM N,N-dimethyl-hydroxylamine; 2.7 Å, space group P21; settings: both partners purified
purified protein = substrate: CN(C)C; assay: purified protein; assay type: biochemical, Methanosarcina barkeri; settings: 30 µM Co(I)-MttC as methyl acceptor, RamA, 2 mM Ti(III)-citrate, 2.5 mM ATP, 2.5 mM MgCl2, phosphate pH 7.2, 37 °C, anaerobic
[2] = molecular target: the molecule itself; assay: crystal structure; MttB alone; vapor diffusion at 10 °C; 8 mg/mL MttB in 20 mM potassium phosphate pH 7.4, 500 mM NaCl, 240 mM imidazole, 20% glycerol; reservoir 4% MPD, 0.1 M citric acid pH 4.5; 2.5 Å

| Molecule | Km (purified protein) | kcat (purified protein) | also measured |
| --- | --- | --- | --- |
| O=S(O)O [sulfite] |  |  | X-ray crystal structure, 3.2 Å (MttB): addition of sulfite to the pyrrolysine imine carbon of MttB was observed |
| B1 |  |  | binding result [1]: binds |
| B2 | 49 ± 6 µM | 48 ± 2 turnovers per min |  |
| B3 |  |  | stoichiometry N [2]: 6 |
| B4 | 75 ± 11 µM | 1.7 ± 0.1 turnovers per min |  |
